Results published in paper PMC2756588.

T1: Abp1, P15891
T1 sequence (P15891 535-592, looked up): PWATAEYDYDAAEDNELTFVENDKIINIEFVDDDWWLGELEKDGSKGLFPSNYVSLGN

T2: Bbc1, P47068
T2 sequence (P47068 1-78, looked up): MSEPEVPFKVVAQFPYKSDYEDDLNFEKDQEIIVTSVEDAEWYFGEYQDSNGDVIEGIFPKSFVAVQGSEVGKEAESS

T3: Boi1, P38041
T3 sequence (P38041 1-86, looked up): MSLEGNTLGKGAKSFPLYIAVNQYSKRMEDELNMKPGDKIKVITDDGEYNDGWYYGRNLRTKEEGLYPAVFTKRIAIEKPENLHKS

T4: Boi2, P39969
T4 sequence (P39969 32-116, looked up): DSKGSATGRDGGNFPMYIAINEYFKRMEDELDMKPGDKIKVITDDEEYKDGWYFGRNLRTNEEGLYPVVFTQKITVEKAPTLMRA

T5: Bud14, P27637
T5 sequence (P27637 247-328, looked up): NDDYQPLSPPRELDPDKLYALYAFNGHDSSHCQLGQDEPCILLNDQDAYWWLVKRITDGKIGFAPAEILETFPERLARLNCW

T6: Bzz1-1, P38822
T6 sequence (P38822 478-572, looked up): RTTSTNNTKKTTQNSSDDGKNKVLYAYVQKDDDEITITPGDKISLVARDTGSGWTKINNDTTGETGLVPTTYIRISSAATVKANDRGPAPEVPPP

T7: Bzz1-2, P38822
T7 sequence (P38822 568-633, looked up): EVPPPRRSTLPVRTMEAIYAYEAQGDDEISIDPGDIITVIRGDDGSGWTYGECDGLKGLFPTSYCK

T8: Cdc25, P04821
T8 sequence (P04821 50-136, looked up): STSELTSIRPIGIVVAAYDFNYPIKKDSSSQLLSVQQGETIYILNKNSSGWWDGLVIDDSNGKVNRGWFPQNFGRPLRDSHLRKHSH

T9: Cyk3, Q07533
T9 sequence (Q07533 1-83, looked up): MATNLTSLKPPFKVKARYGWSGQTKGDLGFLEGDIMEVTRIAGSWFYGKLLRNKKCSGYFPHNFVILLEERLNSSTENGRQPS

T10: Fus1, P11710
T10 sequence (P11710 432-512, looked up): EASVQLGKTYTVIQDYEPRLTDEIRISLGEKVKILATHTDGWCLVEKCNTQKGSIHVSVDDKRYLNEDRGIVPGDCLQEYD

T11: Hof1, Q05080
T11 sequence (Q05080 590-669, looked up): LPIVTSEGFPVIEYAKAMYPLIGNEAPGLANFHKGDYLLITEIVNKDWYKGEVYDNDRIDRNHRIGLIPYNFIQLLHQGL

T12: Hse1, P38753
T12 sequence (P38753 208-285, looked up): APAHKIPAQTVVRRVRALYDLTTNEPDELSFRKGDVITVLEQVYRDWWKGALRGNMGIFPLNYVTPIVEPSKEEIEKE

T13: Lsb1, P53281
T13 sequence (P53281 45-122, looked up): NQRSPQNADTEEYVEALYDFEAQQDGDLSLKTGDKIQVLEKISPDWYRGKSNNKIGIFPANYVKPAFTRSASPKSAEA

T14: Lsb3, P43603
T14 sequence (P43603 385-451, looked up): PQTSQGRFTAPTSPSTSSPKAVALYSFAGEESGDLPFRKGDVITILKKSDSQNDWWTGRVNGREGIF

T15: Lsb4, P32793
T15 sequence (P32793 402-468, looked up): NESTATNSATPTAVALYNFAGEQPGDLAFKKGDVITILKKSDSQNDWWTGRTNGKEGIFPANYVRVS

T16: Myo5, Q04439
T16 sequence (Q04439 1072-1160, looked up): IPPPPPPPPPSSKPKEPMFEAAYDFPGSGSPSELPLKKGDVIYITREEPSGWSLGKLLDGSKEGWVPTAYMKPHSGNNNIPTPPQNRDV

T17: Nbp2, Q12163
T17 sequence (Q12163 103-180, looked up): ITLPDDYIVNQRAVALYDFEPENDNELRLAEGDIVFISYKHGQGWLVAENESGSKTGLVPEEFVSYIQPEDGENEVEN

T18: Pex13, P80667
T18 sequence (P80667 295-386, looked up): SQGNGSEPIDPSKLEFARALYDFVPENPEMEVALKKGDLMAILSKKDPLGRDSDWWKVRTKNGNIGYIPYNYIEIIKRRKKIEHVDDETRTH

T19: Pin3, Q06449
T19 sequence (Q06449 53-122, looked up): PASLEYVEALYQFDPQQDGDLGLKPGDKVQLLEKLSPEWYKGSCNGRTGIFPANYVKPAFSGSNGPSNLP

T20: Sla1-2, P32790
T20 sequence (P32790 60-140, looked up): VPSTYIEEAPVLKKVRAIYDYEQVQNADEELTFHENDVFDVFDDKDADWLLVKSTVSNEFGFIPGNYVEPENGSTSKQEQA

T21: Sla1-3, P32790
T21 sequence (P32790 344-424, looked up): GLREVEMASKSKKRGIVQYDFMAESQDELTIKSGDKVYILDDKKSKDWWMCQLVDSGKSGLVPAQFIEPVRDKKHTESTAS


Columns and labels:
Assay in all cases: SPOT array
Abp1, P15891 = biological target: T1, Abp1, P15891; details: median of control spots 935
Bbc1, P47068 = biological target: T2, Bbc1, P47068; details: median of control spots 796
Bem1-1, P29366 = details: median of control spots 4282
Bem1-2, P29366 = details: median of control spots 4347
Boi1, P38041 = biological target: T3, Boi1, P38041; details: median of control spots 1162
Boi2, P39969 = biological target: T4, Boi2, P39969; details: median of control spots 1161
Bud14, P27637 = biological target: T5, Bud14, P27637; details: median of control spots 956
Bzz1-1, P38822 = biological target: T6, Bzz1-1, P38822; details: median of control spots 4446
Bzz1-2, P38822 = biological target: T7, Bzz1-2, P38822; details: median of control spots 4538
Cdc25, P04821 = biological target: T8, Cdc25, P04821; details: median of control spots 969
Cyk3, Q07533 = biological target: T9, Cyk3, Q07533; details: median of control spots 1451
Fus1, P11710 = biological target: T10, Fus1, P11710; details: median of control spots 1200
GST = details: median of control spots 978
Hof1, Q05080 = biological target: T11, Hof1, Q05080; details: median of control spots 4086
Hse1, P38753 = biological target: T12, Hse1, P38753; details: median of control spots 1727
Lsb1, P53281 = biological target: T13, Lsb1, P53281; details: median of control spots 388
Lsb3, P43603 = biological target: T14, Lsb3, P43603; details: median of control spots 406
Lsb4, P32793 = biological target: T15, Lsb4, P32793; details: median of control spots 397
Myo3, P36006 = details: median of control spots 468
Myo5, Q04439 = biological target: T16, Myo5, Q04439; details: median of control spots 471
Nbp2, Q12163 = biological target: T17, Nbp2, Q12163; details: median of control spots 357
Pex13, P80667 = biological target: T18, Pex13, P80667; details: median of control spots 1341
Pin3, Q06449 = biological target: T19, Pin3, Q06449; details: median of control spots 2171
Rvs167, P39743 = details: median of control spots 2707
Sho1, P40073 = details: median of control spots 1148
Sla1-2, P32790 = biological target: T20, Sla1-2, P32790; details: median of control spots 712
Sla1-3, P32790 = biological target: T21, Sla1-3, P32790; details: median of control spots 5475

Chain of Rvs167, P39743 (P39743 419-482): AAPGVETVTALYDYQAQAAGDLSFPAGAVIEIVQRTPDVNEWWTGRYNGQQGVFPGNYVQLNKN
Chain of Bem1-1, P29366 (P29366 55-141): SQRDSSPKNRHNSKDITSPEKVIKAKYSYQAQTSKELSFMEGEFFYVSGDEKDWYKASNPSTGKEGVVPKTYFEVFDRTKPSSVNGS
Chain of Bem1-2, P29366 (P29366 139-227): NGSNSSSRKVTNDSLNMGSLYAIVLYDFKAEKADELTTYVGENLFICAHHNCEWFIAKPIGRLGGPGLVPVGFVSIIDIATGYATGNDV
Chain of Sho1, P40073 (P40073 287-367): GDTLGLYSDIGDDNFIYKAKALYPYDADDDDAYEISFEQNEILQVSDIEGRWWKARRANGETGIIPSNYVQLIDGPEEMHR

Row | SPOT intensity (Abp1, P15891) | SPOT intensity (Bbc1, P47068) | SPOT intensity (Bem1-1, P29366) | SPOT intensity (Bem1-2, P29366) | SPOT intensity (Boi1, P38041) | SPOT intensity (Boi2, P39969) | SPOT intensity (Bud14, P27637) | SPOT intensity (Bzz1-1, P38822) | SPOT intensity (Bzz1-2, P38822) | SPOT intensity (Cdc25, P04821) | SPOT intensity (Cyk3, Q07533) | SPOT intensity (Fus1, P11710) | SPOT intensity (GST) | SPOT intensity (Hof1, Q05080) | SPOT intensity (Hse1, P38753) | SPOT intensity (Lsb1, P53281) | SPOT intensity (Lsb3, P43603) | SPOT intensity (Lsb4, P32793) | SPOT intensity (Myo3, P36006) | SPOT intensity (Myo5, Q04439) | Binder | other results
1 | 6 | 0 | 0 | 0 | 0 | 1 | 0 | 0 | 2 | 0 | 0 | 0 | 0 | 1560 | 0 | 174 | 131 | 278 | 7 | 27 | MAMRPIPPLPTESEY | SPOT intensity (Nbp2, Q12163): 0; SPOT intensity (Pex13, P80667): 235; SPOT intensity (Pin3, Q06449): 4; SPOT intensity (Rvs167, P39743): 1460; SPOT intensity (Sho1, P40073): 30; SPOT intensity (Sla1-2, P32790): 0; SPOT intensity (Sla1-3, P32790): 0
2 | 25 | 0 | 0 | 0 | 2 | 0 | 0 | 0 | 0 | 0 | 1 | 1 | 0 | 3 | 4 | 456 | 345 | 356 | 97 | 45 | TPTSGPPLLPPRNTM | SPOT intensity (Nbp2, Q12163): 0; SPOT intensity (Pex13, P80667): 813; SPOT intensity (Pin3, Q06449): 66; SPOT intensity (Rvs167, P39743): 2940; SPOT intensity (Sho1, P40073): 21; SPOT intensity (Sla1-2, P32790): 1; SPOT intensity (Sla1-3, P32790): 0
3 | 0 | 0 | 0 | 12 | 0 | 1 | 1 | 0 | 0 | 0 | 0 | 0 | 0 | 0 | 6 | 8 | 139 | 598 | 0 | 0 | YLTRPLPSTPNEDSR | SPOT intensity (Nbp2, Q12163): 0; SPOT intensity (Pex13, P80667): 297; SPOT intensity (Pin3, Q06449): 0; SPOT intensity (Rvs167, P39743): 15; SPOT intensity (Sho1, P40073): 1320; SPOT intensity (Sla1-2, P32790): 0; SPOT intensity (Sla1-3, P32790): 1
4 | 0 | 0 | 2 | 0 | 0 | 0 | 0 | 2 | 0 | 0 | 2 | 0 | 0 | 1330 | 0 | 1380 | 743 | 813 | 112 | 59 | VAPPPLPNRQLPNLD | SPOT intensity (Nbp2, Q12163): 0; SPOT intensity (Pex13, P80667): 563; SPOT intensity (Pin3, Q06449): 5; SPOT intensity (Rvs167, P39743): 5720; SPOT intensity (Sho1, P40073): 0; SPOT intensity (Sla1-2, P32790): 0; SPOT intensity (Sla1-3, P32790): 0
5 | 0 | 0 | 0 | 0 | 4 | 0 | 0 | 2 | 0 | 0 | 0 | 0 | 1 | 0 | 0 | 461 | 478 | 642 | 0 | 0 | ANNQGPPNLPARDKS | SPOT intensity (Nbp2, Q12163): 0; SPOT intensity (Pex13, P80667): 229; SPOT intensity (Pin3, Q06449): 0; SPOT intensity (Rvs167, P39743): 3320; SPOT intensity (Sho1, P40073): 0; SPOT intensity (Sla1-2, P32790): 1; SPOT intensity (Sla1-3, P32790): 0
6 | 156 | 1070 | 0 | 13 | 0 | 2 | 3 | 1 | 1 | 10 | 1 | 0 | 0 | 28 | 245 | 824 | 271 | 317 | 0 | 0 | EVTPKVPERPSRRKT | SPOT intensity (Nbp2, Q12163): 0; SPOT intensity (Pex13, P80667): 171; SPOT intensity (Pin3, Q06449): 25; SPOT intensity (Rvs167, P39743): 129; SPOT intensity (Sho1, P40073): 23; SPOT intensity (Sla1-2, P32790): 0; SPOT intensity (Sla1-3, P32790): 15
